# Data as given in patent US20260184791A1 (KYMAB, published 2026).
# Experiments:
# [1] = molecular target: T1, mouse ICOS expressed on the surface of CHO-S cells (mouse, UniProt Q9WVS0 21-141); assay: flow cytometry, CHO-S cells expressing ICOS, purified IgG1
# T1 construct: The construct expressed in CHO-S cells is not specified; also called mICOS; Mouse ICOS CHO
# T1 sequence: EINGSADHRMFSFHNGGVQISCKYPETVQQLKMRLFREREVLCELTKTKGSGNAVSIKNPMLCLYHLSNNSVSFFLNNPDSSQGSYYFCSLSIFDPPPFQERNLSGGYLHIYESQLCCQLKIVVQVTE
# [2] = molecular target: T2, human ICOS expressed on the surface of cells (human, UniProt Q9Y6W8 21-199); assay: as above
# T2 construct: also called hICOS; Human ICOS CHO
# T2 sequence: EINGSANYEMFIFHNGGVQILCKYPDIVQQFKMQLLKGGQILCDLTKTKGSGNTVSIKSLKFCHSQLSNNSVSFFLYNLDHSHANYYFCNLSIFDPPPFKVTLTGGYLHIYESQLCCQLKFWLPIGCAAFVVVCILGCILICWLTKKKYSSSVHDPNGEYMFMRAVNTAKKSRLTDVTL
# [3] = molecular target: T2, human ICOS expressed on the surface of …; assay: Receptor occupancy by chip cytometry on ICOS+ CD4 memory cells (ICOS+CD3+CD4+FoxP3-CD45RA-) from blood of patients dosed with KY1044 every 3 weeks; samples at C1D1, C1D8, C2D1 and C2D8
binder,measurement,setting,value
"CL-61091 (antibody, human IgG1, V domains shown) VH: QVQLMQSGTEVKKPGASVKVSCKTSGYTFTTYGITWVRQAPGQGLEWMGWISAYSGDTDYAQKFQGRVTVTTDTSTNTAYMELRSLKSDDTAVYYCARSSGWPHHYGMDVWGQGTTVTVSS VL: DIVMTQSPLSLPVTPGEPASISCRSSQSLLHSNGFNYFDWYLQKPGQSPQLLIFLVSNRASGVPDRFSGSGSGTDFTLKISRVEAEDVGIYYCMQALQTPLTFGGGTKVEIK",fold above the average of geomean of the negative control,[1],> 10 fold
same,fold above the average of geomean of the negative control,[2],> 10 fold
"CL-74570 (antibody, human IgG1, V domains shown) VH: EVQLVESGGGVIRPGGSLRLSCAASGFTFDDYGMSWVRQAPGKGLEWVSGINWIGDNTDYADSVKGRFTISRDNAKNSLYLQMNSLRAEDTALYYCARDYFGSGSYYNVPF VL: not shown",fold above the average of geomean of the negative control,[1],> 10 fold
same,fold above the average of geomean of the negative control,[2],> 10 fold
"KY1044 (antibody, human IgG1, kappa, V domains shown, also called STIM003; SAR445256) VH: EVQLVESGGGVVRPGGSLRLSCVASGVTFDDYGMSWVRQAPGKGLEWVSGINWNGGDTDYSDSVKGRFTISRDNAKNSLYLQMNSLRAEDTALYYCARDFYGSGSYYHVPFDYWGQGILVTVSS VL: EIVLTQSPGTLSLSPGERATLSCRASQSVSRSYLAWYQQKRGQAPRLLIYGASSRATGIPDRFSGDGSGTDFTLSISRLEPEDFAVYYCHQYDMSPFTFGPGTKVDIKR",binding result,[3],binds
